According to the supplement of paper PMC9233669:
Variants at the floor of the assay were thinned out.

How the values were obtained:
biotinyl-Leu-oxazolone = test: self-aminoacylation, catalytic enhancement (BLO) (fold over background); higher = more active; k-Seq, kA / k0A0; sequences stand for … in GGGAAUGGAUCCACAUCUACGAAUUC…UUCACUGCAGACUUGACGAAGCUG
In short: (§1)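 Each biotinyl-aminoacyl-oxazolone, at 2–1250 μM, was incubated with mutagenized RNA pools (0.43 μM) carrying a 21-nt variable region. The 50 μL reactions contained HEPES/NaCl/KCl/MgCl2/CaCl2 buffer with 5% acetonitrile at pH 6.9–7.0 and ran for 90 minutes at room temperature. After streptavidin capture, RNA was measured by qPCR in triplicate and by Illumina sequencing, and catalytic enhancement was calculated as median kA over the uncatalyzed rate from a pseudo-first-order fit of per-sequence fraction reacted.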

biotinyl-Val-oxazolone = test: self-aminoacylation, catalytic enhancement (BVO) (fold over background); higher = more active; k-Seq, kA / k0A0; sequences stand for … in GGGAAUGGAUCCACAUCUACGAAUUC…UUCACUGCAGACUUGACGAAGCUG
In short: as §1

biotinyl-Ile-oxazolone = test: self-aminoacylation, catalytic enhancement (BIO) (fold over background); higher = more active; k-Seq, kA / k0A0; sequences stand for … in GGGAAUGGAUCCACAUCUACGAAUUC…UUCACUGCAGACUUGACGAAGCUG
In short: as §1

biotinyl-Phe-oxazolone = test: self-aminoacylation, catalytic enhancement (BFO) (fold over background); higher = more active; k-Seq, kA / k0A0; sequences stand for … in GGGAAUGGAUCCACAUCUACGAAUUC…UUCACUGCAGACUUGACGAAGCUG
In short: as §1

biotinyl-Trp-oxazolone = test: self-aminoacylation, catalytic enhancement (BWO) (fold over background); higher = more active; k-Seq, kA / k0A0; sequences stand for … in GGGAAUGGAUCCACAUCUACGAAUUC…UUCACUGCAGACUUGACGAAGCUG
In short: as §1

biotinyl-Met-oxazolone = test: self-aminoacylation, catalytic enhancement (BMO) (fold over background); higher = more active; k-Seq, kA / k0A0; sequences stand for … in GGGAAUGGAUCCACAUCUACGAAUUC…UUCACUGCAGACUUGACGAAGCUG
In short: as §1

Row | Sequence | self-aminoacylation (biotinyl-Leu-oxazolone) | self-aminoacylation (biotinyl-Val-oxazolone) | self-aminoacylation (biotinyl-Ile-oxazolone) | self-aminoacylation (biotinyl-Phe-oxazolone) | self-aminoacylation (biotinyl-Trp-oxazolone) | self-aminoacylation (biotinyl-Met-oxazolone)
1 | CUUACCCUGGUCAUCGAAUGA [Fam2.1 aminoacylation ribozyme variant] | 0.937 | 0.985 | 1.01 | 1.02 | 0.668 | 0.915
2 | AAUACCCUGGUCAUAGAGUGA [Fam2.1 aminoacylation ribozyme variant] | 4.68 | 2.3 | 2.68 | 10.7 | 5.58 | 4.64
3 | AUUACCCUGGUCAUCGAGGGC [Fam2.1 aminoacylation ribozyme variant] | 1.56 | 1.24 | 1.31 | 1.09 | 1.12 | 1.77
4 | CUAUUUCAAACAAUCGGUGUG [Fam1A.1 aminoacylation ribozyme variant] | 0.992 | 0.83 | 0.727 | 0.988 | 0.757 | 1.01
5 | AUUACCUUGGUCACCGAGUGA [Fam2.1 aminoacylation ribozyme variant] | 6.74 | 3.11 | 2.87 | 23.4 | 6.72 | 6.15
6 | CUACUUCAAACGAUCGGCCUG [Fam1A.1 aminoacylation ribozyme variant] | 1.96 | 1.66 | 1.55 | 1.59 | 2.08 | 1.33
7 | ACUCACCUAGGUCAUCGAGUG [Fam2.2 aminoacylation ribozyme variant] | 4.67 | 2.86 | 2.85 | 7.77 | 2.72 | 3.27
8 | AAGUUUGGUAAUAGUCGUAAG [Fam3.1 aminoacylation ribozyme variant] | 0.801 | 0.916 | 1.04 | 1.44 | 1.11 | 0.961
9 | CCACACUUCAAGCAAUCCGGC [Fam1B.1 aminoacylation ribozyme variant] | 2.88 | 3.66 | 3.02 | 1.71 | 2.1 | 3.54
10 | AAGUUUGCUAAUAGUCGCAAC [Fam3.1 aminoacylation ribozyme variant] | 0.816 | 0.935 | 0.972 | 1.28 | 1.06 | 0.904
11 | AAGAUUGCUAAUAGUCGGAAG [Fam3.1 aminoacylation ribozyme variant] | 0.837 | 1.22 | 1.4 | 1.84 | 1.54 | 0.909
12 | AAGUGUGCUAAUAAUCGCAAG [Fam3.1 aminoacylation ribozyme variant] | 0.989 | 1.29 | 1.35 | 1.51 | 1.09 | 1.25
13 | AUUUUCCUGGUCAUCGAGUGA [Fam2.1 aminoacylation ribozyme variant] | 8.6 | 4.13 | 4.2 | 10.8 | 9.4 | 8.02
14 | AUUACCGUGGUCUUCGAGUGA [Fam2.1 aminoacylation ribozyme variant] | 5.05 | 3.21 | 2.96 | 27 | 6.36 | 5.14
15 | AUUCACCUAGCUCAUCGGGCG [Fam2.2 aminoacylation ribozyme variant] | 2.33 | 2.57 | 2.26 | 11.7 | 1.8 | 2.3
16 | AAGUUUGCCACUAGUCGCAAG [Fam3.1 aminoacylation ribozyme variant] | 0.973 | 1.15 | 0.918 | 0.709 | 0.807 | 0.991
17 | AUUCACGUAGGUCAUCGGGGG [Fam2.2 aminoacylation ribozyme variant] | 2.4 | 2.09 | 2.24 | 1.73 | 2.53 | 2.66
18 | AUUACCCUGGUGAUCAAGUGA [Fam2.1 aminoacylation ribozyme variant] | 3.25 | 1.92 | 1.81 | 8.79 | 4.2 | 3.19
19 | GCUCACUUCAAGCAAUCGGUC [Fam1B.1 aminoacylation ribozyme variant] | 1.77 | 1.67 | 1.69 | 16.7 | 10.9 | 1.58
20 | AUUAGCCAGGUCAUCGAGUGA [Fam2.1 aminoacylation ribozyme variant] | 5.48 | 3.8 | 3.72 | 19.1 | 6.91 | 5.35
21 | CUACUUUAAACAAUCGGACUG [Fam1A.1 aminoacylation ribozyme variant] | 0.759 | 0.757 | 0.901 | 0.698 | 0.809 | 0.874
22 | CCACACUUCAAGAAAUCUGUC [Fam1B.1 aminoacylation ribozyme variant] | 0.292 | 0.402 | 0.306 | 0.421 | 0.349 | 0.349
23 | AAGUCUGCUAAUAGUCGGAAG [Fam3.1 aminoacylation ribozyme variant] | 1.87 | 1.61 | 1.25 | 18.4 | 7.78 | 2.09
24 | AUUUCCCUAGUCAUCGAGUGA [Fam2.1 aminoacylation ribozyme variant] | 6.58 | 4.03 | 3.46 | 31.5 | 7.31 | 6.04
25 | AUCUACCUAGGUCAUCGGGUG [Fam2.2 aminoacylation ribozyme variant] | 12.1 | 6.18 | 6.54 | 51.1 | 8.66 | 10
26 | CUACAUGAAACAAUCGGUCUG [Fam1A.1 aminoacylation ribozyme variant] | 0.721 | 0.803 | 0.828 | 0.716 | 0.772 | 0.868

Row | Sequence | self-aminoacylation (biotinyl-Leu-oxazolone) | self-aminoacylation (biotinyl-Val-oxazolone) | self-aminoacylation (biotinyl-Ile-oxazolone) | self-aminoacylation (biotinyl-Phe-oxazolone) | self-aminoacylation (biotinyl-Trp-oxazolone) | self-aminoacylation (biotinyl-Met-oxazolone)
27 | AUUACCUUGGUAAUCGAGUGA [Fam2.1 aminoacylation ribozyme variant] | 8.08 | 3.87 | 3.52 | 40 | 8.42 | 7.66
28 | CCACAGUUCAAGCAAUCGGUG [Fam1B.1 aminoacylation ribozyme variant] | 5.44 | 3.14 | 3.29 | 25.9 | 3.62 | 4.04
29 | AAGUUUGCUUAUAGUCGCUAG [Fam3.1 aminoacylation ribozyme variant] | 0.628 | 0.646 | 0.884 | 1 | 0.61 | 0.705
30 | CCGCACUUAAAGCAAUCGGUC [Fam1B.1 aminoacylation ribozyme variant] | 1.05 | 1.25 | 1.13 | 0.932 | 1.15 | 1.1
31 | AUUACCCUGGUCAUCGAGUAG [Fam2.1 aminoacylation ribozyme variant] | 4.67 | 2.64 | 2.15 | 13.9 | 4.18 | 4.51
32 | CAACACUUAAAGCAAUCGGUC [Fam1B.1 aminoacylation ribozyme variant] | 0.82 | 0.909 | 1.12 | 0.828 | 0.79 | 0.98
33 | AAGUCUGCUAAUAGUCCCAAG [Fam3.1 aminoacylation ribozyme variant] | 1.15 | 0.893 | 0.928 | 7.42 | 2.43 | 1.38
34 | CUACUUCGUACAAUCGGUCUG [Fam1A.1 aminoacylation ribozyme variant] | 0.596 | 0.685 | 0.571 | 0.251 | 0.327 | 0.519
35 | AUUACCCUGGUCCUCGAGUGU [Fam2.1 aminoacylation ribozyme variant] | 3.22 | 1.73 | 1.59 | 2.62 | 3.02 | 2.78
36 | CUACUUCAAACAAUCCGUCUA [Fam1A.1 aminoacylation ribozyme variant] | 0.651 | 0.88 | 0.801 | 1.07 | 0.596 | 0.611
37 | AAGUUUCCUAAUACUCGCAAG [Fam3.1 aminoacylation ribozyme variant] | 0.891 | 0.889 | 0.862 | 0.584 | 0.555 | 1
38 | AUUCACCUAGGUCACCCGGUG [Fam2.2 aminoacylation ribozyme variant] | 9.93 | 7.55 | 9.3 | 37.3 | 5.82 | 7.32
39 | CUACUUCAAACAAUCGGUCGA [Fam1A.1 aminoacylation ribozyme variant] | 0.992 | 0.974 | 0.884 | 14.9 | 6.82 | 0.807
40 | AUUACCCUCAUCAUCGAGUGA [Fam2.1 aminoacylation ribozyme variant] | 10.7 | 5.02 | 4.69 | 74.1 | 11.9 | 10.5
41 | GUACUUCAAACAAUCGGUCUG [Fam1A.1 aminoacylation ribozyme variant] | 2.15 | 1.42 | 1.54 | 51.3 | 30.5 | 1.53
42 | CUACUUCAGACAAACGGUCUG [Fam1A.1 aminoacylation ribozyme variant] | 0.908 | 0.863 | 0.89 | 0.868 | 0.573 | 0.962
43 | UAUACCCUGGUCAUCGAGUGA [Fam2.1 aminoacylation ribozyme variant] | 15.5 | 7.52 | 7.17 | 25.2 | 16 | 14.8
44 | AUUCAUCUAUGUCAUCGGGUG [Fam2.2 aminoacylation ribozyme variant] | 8.74 | 3.8 | 4.09 | 50.7 | 6.27 | 6.63
45 | CUUCUUCAAACCAUCGGUCUG [Fam1A.1 aminoacylation ribozyme variant] | 0.722 | 0.775 | 0.856 | 0.739 | 0.509 | 0.682
46 | AUUACCCGGGUCAGCGAGUGA [Fam2.1 aminoacylation ribozyme variant] | 7.97 | 5.24 | 5.75 | 55.5 | 10.2 | 8.03
47 | CCAAACUUGAAGCAAUCGGUC [Fam1B.1 aminoacylation ribozyme variant] | 0.828 | 0.996 | 0.898 | 0.596 | 0.693 | 0.87
48 | CUACGUCAUACAAUCGGUCUG [Fam1A.1 aminoacylation ribozyme variant] | 1.27 | 1.09 | 1.1 | 1.1 | 0.994 | 1.1
49 | CUACCUCAAACAAACGGUCUG [Fam1A.1 aminoacylation ribozyme variant] | 1.08 | 1.03 | 0.919 | 1.33 | 0.615 | 0.85
50 | CCACACUUCAAGUUAUCGGUC [Fam1B.1 aminoacylation ribozyme variant] | 1.04 | 1.06 | 1.09 | 0.799 | 1.08 | 1.01
51 | AUUCAUCUAGAUCAUCGGGUG [Fam2.2 aminoacylation ribozyme variant] | 4.1 | 2.14 | 2.1 | 14.1 | 3.24 | 2.68
